Measurements: publication PMC125294 (Arthritis Research, 2002)
Ends that are not written are not given here.

T1: Lewis rat MHC class II molecule, RT1.B^L (rat (Lewis), UniProt P20037 24-256; P29826 28-263)
T1 sequence (looked up) 1: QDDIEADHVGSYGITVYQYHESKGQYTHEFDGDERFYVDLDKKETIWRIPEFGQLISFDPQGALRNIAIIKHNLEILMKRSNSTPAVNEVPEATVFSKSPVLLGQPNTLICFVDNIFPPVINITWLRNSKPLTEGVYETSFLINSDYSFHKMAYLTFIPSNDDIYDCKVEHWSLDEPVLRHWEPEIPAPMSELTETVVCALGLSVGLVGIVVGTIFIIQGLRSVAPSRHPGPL
T1 sequence (looked up) 2: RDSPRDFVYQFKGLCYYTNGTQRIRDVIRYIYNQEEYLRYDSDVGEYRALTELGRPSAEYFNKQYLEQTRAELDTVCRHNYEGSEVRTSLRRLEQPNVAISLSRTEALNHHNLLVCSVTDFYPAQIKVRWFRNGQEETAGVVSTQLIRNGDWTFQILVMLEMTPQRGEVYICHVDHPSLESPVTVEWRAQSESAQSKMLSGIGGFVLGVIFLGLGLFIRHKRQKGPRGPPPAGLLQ


Columns and labels:
[1] = test system: polyclonal lymph node cell population; conditions: ref [9] (also Fig. 3); cited from earlier work
[2] = test system: MMP peptide-specific T cells; assay: Delayed-type hypersensitivity; conditions: control ovalbumin peptide
[3] = target: T1, Lewis rat MHC class II molecule, RT1.B^L; assay: competitive MHC class II-peptide binding assay

Molecule | IC50 [3] [µM] | other results
SNTFGLQLE [hsp65_178–186] | – | proliferative response to mycobacterial hsp65 178–186 [1]: very low
ISQAVHAAHAEINEAGR [OVA323–339] | – | DTH reaction (in words), control peptide [2]: no DTH reaction was observed
VKEGHSPPDDVDIVI-NH2 [Human MMP-16_(539-553) peptide] | 64 to 128 | –

Further lines, with some results ahead:

IC50 [3] [µM] | Molecule | other results
128 to 256 | SAFWPSLPSGLDAAY-NH2 [Rat MMP-10_(329-343) peptide] | –
≤ 8 | FLYFFSGSSQLEFDP-NH2 [Rat MMP-3_(444-458) peptide] | –
